# Data from the RNAGym collection of RNA variant scans (doi:10.1073/pnas.2313332121).
# Variants at the floor of the assay were thinned out.
# B1: TPR 5TU (parent)
# chain: GGAUCUUCUCGAUCUAACAAAAAAGACAAAUCUGCCACAAAGCUUGAGAGCAUCUUCGGAUGCAGAGGCGGCAGCCUUCGGUGGCGCGAUAGCGCCAACGUUCUCAACUAUGACACGCAAAACGCGUGCUCCGUUGAAUGGAGUUUAUCAUG
# Variants of: B1
# Experiment: polymerase ribozyme fitness, log enrichment relative to wild type (log ratio); higher = more active; in vitro selection for triplet polymerase activity
# Outline: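 Fitness compares each genotype's enrichment to that of the wild type on a logarithmic scale, averaging replicates with inverse-variance weights. The logarithm is base 2. Enrichment came from Illumina sequencing of input and output libraries after one triplicate round of in vitro selection, which included frozen incubation at −7 °C, of PCR-built, transcribed mutant libraries of each subunit of a heterodimeric triplet polymerase ribozyme. Only genotypes with ≥10 input reads and ≥1 read per output were kept.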
row,Variant,polymerase ribozyme fitness (log ratio)
1,A28U G68U C99U A110G,≤ -4.2
2,A29C U31G C87A U139G,≤ -4.2
3,A29C U53A A73C G84C C103G A107U U134G,≤ -4.2
4,A28C U61G G67A C69A C93G A113U G124U,≤ -4.2
5,A29G A52C C85A U90C C95G A97G C118A A138C G143U,≤ -4.2
6,A28C G83C G128U,≤ -4.2
7,C27U U139A,≤ -4.2
8,A28U U61G C87G,-4.14
9,A29C A30C G65A C93U G136A,≤ -4.2
10,A28G A41C C96A U145G,≤ -4.2
11,A28C G46C G84A C85U C96U C116U C149U,≤ -4.2
12,A29C G92A G143C U146C,≤ -4.2
13,A28C A49C C96U G133A U134G,-4.14
14,A28U A29U U61A G81A C93A,≤ -4.2
15,A29C G65A C108U C116G C125A U146G A150G,≤ -4.2
16,A29G A52G,-4.08
17,C27U U31C A52C U78C U101A C125G,≤ -4.2
18,A29G A30C G86U A137U,≤ -4.2
19,A28G C75G G88A U139G G141C,-3.97
20,A28U A30U A39U G50C C57G C75G U82A G83C G124U,≤ -4.2
21,A29G A49C G67A C114U U127G,≤ -4.2
22,A28U C32U G42C G84A A89G G92A C131A U148A,≤ -4.2
23,A28U A41C C96A G141C,-4.02
24,A28G C79G C85U A115C U151A,≤ -4.2

row,Variant,polymerase ribozyme fitness (log ratio)
1,A28C C54G C79G C85G U145A,≤ -4.2
2,A28U A47C G74C C95U A142C C149A,≤ -4.2
3,C27U U53A U61A C69G G88C,≤ -4.2
4,C27U G58A A60G G84U,-1.42
5,A28G A29U C87G C96A,≤ -4.2
6,A29C A52C U53A C54U C75G C129A,≤ -4.2
7,A28C A41C C95A G128A G140C G143A,≤ -4.2
8,A28U C96A,-3.93
9,A28U C96U,-3.66
10,A29C A41G G59C G62C G100A G141C,≤ -4.2
11,A29C C54U C85U,≤ -4.2
12,A28G A52C U55C C63A C87U A91U,≤ -4.2
13,C27U G50C G141A,-4.12
14,C27U U31A G48U C85U,-2.25
15,A29G C43U U45A A52C C75G A91U A115G U151G,≤ -4.2
16,A28U A73U A91G C125A A137C,≤ -4.2
17,C27U C79U C87G U90C C96U A121U U134G,≤ -4.2
18,A28U C32G A41U A73G C85G G88U G136A,≤ -4.2
19,A29G A30U C85A A107U C118G,≤ -4.2
20,A29C G58A C87G C93G G133A U145C,≤ -4.2
21,C27U G58C C87A A107U,≤ -4.2
22,A28U A66C C72U A91C C114U,≤ -4.2
23,A28U A49G C54A C93U U144C,≤ -4.2
24,C27U U33G G68C C69U C76U C95A C103U A110C G133A U139G,≤ -4.2

row,Variant,polymerase ribozyme fitness (log ratio)
1,A28U G50U G59A,≤ -4.2
2,C27U U55A U56A,-2.25
3,A29C C95A G117U G126U G141C G143C,≤ -4.2
4,A28U A29U A37G A66U A73U U78G G84A,≤ -4.2
5,A28C C43U U56A A107C,≤ -4.2
6,A29G C43U A66C C96U C103A,≤ -4.2
7,A28U A29C U45A G58C C85U C105U A106G,≤ -4.2
8,A28U G50A C132U,≤ -4.2
9,A28U A41C G88C,≤ -4.2
10,A28C A29U A107U A115G,≤ -4.2
11,A29C C35A,-3.91
12,A29C C38G G65U U77A G81C A137G,≤ -4.2
13,A28U G84U,≤ -4.2
14,A28G G46A C85A A91G,≤ -4.2
15,C27U G84A,-1.66
16,A29G C76G C93U,≤ -4.2
17,C27U C75G U78A C85U U148G,≤ -4.2
18,A28C,-3.75
19,A28U,-3.38
20,A28G,-2.24
21,A28G C93U U127C,≤ -4.2
22,A29G A89U C96U A115C A121C G143U,≤ -4.2
23,A29C C96G,-4.15
24,A28U G50C G83C A110C,≤ -4.2

row,Variant,polymerase ribozyme fitness (log ratio)
1,C27U G58A C96U C116U C118G U144G,-0.836
2,A29C A41G A97C A122U,≤ -4.2
3,C27U G94A,-2.73
4,A28C U78G,≤ -4.2
5,A29C C63U G65U U144G,≤ -4.2
6,C27U U61G A64U C96U,≤ -4.2
7,A28U C75U G84U G86A C93U A106G A113U,≤ -4.2
8,A28U G48A G74C C96U C131A,≤ -4.2
9,A29C G74C,≤ -4.2
10,A29C U33G A40U G80U G94U U102C G143A U151A,-3.89
11,A28U A41U C79G G86A G136A G152A,≤ -4.2
12,A29C A49C C57G C132U,≤ -4.2
13,A28U C93U C118U A121G,≤ -4.2
14,A29G C35U U145C,-3.89
15,A28C A30U G86A,≤ -4.2
16,A29C U53A,≤ -4.2
17,A28U U53A G81C C95G A107U U139A,≤ -4.2
18,A28C G86U,≤ -4.2
19,A28G C54U C93A U127A,≤ -4.2
20,A28U G67U C103A,≤ -4.2
21,A28C A60G C69U G74A U135G A138U G141U,≤ -4.2
22,A29G A41C A60U C85G G86U C116G G133C A142G A150G,≤ -4.2
23,C27U U31G U55G G94C A113C,≤ -4.2
24,A28G A40G G50A A52G G65U C96U,-3.77

row,Variant,polymerase ribozyme fitness (log ratio)
1,A28C G84A G94U C96G C108G U139C G143C,≤ -4.2
2,A28G A37C U55A U90C A91G,≤ -4.2
3,A29G C93A A122G G124A,≤ -4.2
4,C27U G70A C87A,≤ -4.2
5,A29C G62U G80C C118A,≤ -4.2
6,A28U U77C,≤ -4.2
7,A28C C57U G59A U78G G86A A115U,≤ -4.2
8,A28C A30G C93U C103U,-4.06
9,A28C A73C U78G G86C A110U A113U A137C A138U,≤ -4.2
10,A28C U31G C125G,≤ -4.2
11,A28U A40C C75G C87A C95U C105G A121U,≤ -4.2
12,C27U C63U C87A G141U,≤ -4.2
13,A28U C54U C76A C114U,-3.97
14,A29C A41C G62A G84A U90A C118G,≤ -4.2
15,A28U A66U A73G G86U C103G C116U G152U,≤ -4.2
16,A28C G80C C87G,≤ -4.2
17,A29G A60G G92C C116G A121G,≤ -4.2
18,A29C G59U G92C C96A A107G C125U U127G,≤ -4.2
19,C27U G58C C123U,-1.57
20,A28G U56A,-3.7
21,A28C C69U,≤ -4.2
22,A28U A29U G65A C95G C105G U111G A137C G152C,≤ -4.2
23,A29G A47C U55G,≤ -4.2
24,A29C U44G U55A G68A G71U G80A C93A A98U A138C,≤ -4.2

row,Variant,polymerase ribozyme fitness (log ratio)
1,A29C C35U G50C G58U U61G C96A U134A,≤ -4.2
2,A28G A49G G50A C87G,≤ -4.2
3,A28G C36U,≤ -4.2
4,A29G C35G U56G G68A G81A C99A C114A G143C,≤ -4.2
5,A28U C35U,-4.12
6,A28U C76G G92U,≤ -4.2
7,A28C A52U U55G C87G C125U G152A,≤ -4.2
8,A28C C32U A52U U53G C93A G112C G143U,≤ -4.2
9,A28G A52C U55A G67C C149G,≤ -4.2
10,A29C C57A G68A G88C C114U G117C A122G,≤ -4.2
11,A28G A91C G126A,≤ -4.2
12,A28U A30C C32A A47C G58C C85U A107U,≤ -4.2
13,C27U U55A G58C C87U U111C A142U,-4.19
14,A28C U56A C57A G68A C76A G88U G94A A138C,≤ -4.2
15,A28U C54U C63U G71U C108U C114U A137U U139G A150G,≤ -4.2
16,A28G C32U G86C A115G U144G,≤ -4.2
17,A28C C85G A106C A113C,≤ -4.2
18,A29G A30C G59C U90G C95G G133U,≤ -4.2
19,C27U U78A C79G A91C C118G,≤ -4.2
20,A28U A37C U55A A106C U134G G140A,≤ -4.2
21,A28C G42C C76G C79G G86C U90G A97G U145C,≤ -4.2
22,C27U G68C A89G C93A A110G G136C,≤ -4.2
23,A28U U55A C72U U90C A115G,≤ -4.2
24,A28C A64U G84A C85G,≤ -4.2

row,Variant,polymerase ribozyme fitness (log ratio)
1,A28C U61A U134A U148C,≤ -4.2
2,A28G A107G U144C,≤ -4.2
3,C27U G34C C93A G117A,≤ -4.2
4,A29C A37U G133A,≤ -4.2
5,A28G G34U G80A U102A C108G,≤ -4.2
6,A29G A37U A47U U55A G84U A89G A120C G140C U144G,≤ -4.2
7,C27U G58C U139C,≤ -4.2
8,A28U C72U,≤ -4.2
9,A29G A47U A49U G94A C131U,≤ -4.2
10,C27U G50C C114G,≤ -4.2
11,A28C U61A G88A,≤ -4.2
12,A28C C93U,-4.16
13,A29C C87G G117A,≤ -4.2
14,C27U C85U,-2.83
15,C27U C85A,-2.04
16,A29G A60C G80A A121U G141U,≤ -4.2
17,C27U G46A C75A A91U G94A,≤ -4.2
18,A28U A73G,≤ -4.2
19,A28G A138C C149A,≤ -4.2
20,A29G A37U G94C G141U,≤ -4.2
21,A28U U90G C99U G141U U151G,≤ -4.2
22,C27U G59A G67C G86C C99U,≤ -4.2
23,A29C A40G C123A U127A,≤ -4.2
